Values belong to the binder of their own block, whether it stands above or below them.
Experiments:
human 125I-IL6 (human) = human 125I-IL6 (human) (UniProt P05231); experiment: dissociation: 20 pM 125I-IL-6 preincubated with 500 pM antibody for 20 hours, chased with 20 nM cold IL-6, precipitation with Protein G-Sepharose
[1] = molecular target: recombinant human IL-6 (human) (UniProt P05231); experiment: cell-based or functional assay
gp130 on PC12D cells = molecular target: T1, gp130 on PC12D cells (UniProt P40190); experiment: cell-based or functional assay
T1 sequence (looked up): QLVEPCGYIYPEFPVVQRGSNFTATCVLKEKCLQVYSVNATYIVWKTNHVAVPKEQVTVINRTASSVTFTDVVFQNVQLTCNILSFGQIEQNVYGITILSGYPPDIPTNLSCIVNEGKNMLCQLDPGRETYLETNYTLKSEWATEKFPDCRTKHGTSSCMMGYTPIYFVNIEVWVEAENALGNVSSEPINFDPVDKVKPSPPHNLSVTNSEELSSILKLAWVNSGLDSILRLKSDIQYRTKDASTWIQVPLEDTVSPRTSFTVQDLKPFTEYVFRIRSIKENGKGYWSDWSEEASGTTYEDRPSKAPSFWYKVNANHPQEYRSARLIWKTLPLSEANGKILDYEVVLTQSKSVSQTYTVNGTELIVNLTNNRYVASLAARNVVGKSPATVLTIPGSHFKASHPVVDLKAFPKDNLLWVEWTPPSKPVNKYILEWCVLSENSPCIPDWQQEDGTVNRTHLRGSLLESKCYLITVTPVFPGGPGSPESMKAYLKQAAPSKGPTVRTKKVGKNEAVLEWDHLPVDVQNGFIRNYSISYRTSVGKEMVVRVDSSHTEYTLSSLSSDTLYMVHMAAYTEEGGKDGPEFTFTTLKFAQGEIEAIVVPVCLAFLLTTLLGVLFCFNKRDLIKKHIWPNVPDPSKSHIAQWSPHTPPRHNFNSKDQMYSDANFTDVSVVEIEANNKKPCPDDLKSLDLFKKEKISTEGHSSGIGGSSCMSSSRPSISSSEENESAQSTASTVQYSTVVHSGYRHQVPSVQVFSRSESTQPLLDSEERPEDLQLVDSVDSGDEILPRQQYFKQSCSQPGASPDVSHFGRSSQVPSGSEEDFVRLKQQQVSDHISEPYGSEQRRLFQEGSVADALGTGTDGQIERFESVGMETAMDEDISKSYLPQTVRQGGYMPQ

Chain of human 125I-IL6 (human) (P05231 30-212 limits assumed): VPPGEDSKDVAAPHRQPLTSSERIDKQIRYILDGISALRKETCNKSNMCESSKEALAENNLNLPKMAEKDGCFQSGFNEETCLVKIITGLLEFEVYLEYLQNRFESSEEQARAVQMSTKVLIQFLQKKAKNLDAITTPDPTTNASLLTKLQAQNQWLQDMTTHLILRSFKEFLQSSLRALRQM
Chain of recombinant human IL-6 (human) (P05231 30-212 limits assumed): as above

- percent of the counts still associated after three days (human 125I-IL6 (human)): < 5%
- IL-6-dependent proliferation of XG-1 cells (50 pg/ml IL-6): molar excess that blocks completely (fold molar excess over IL-6) [1]: 10
B1: anti-IL-6 monoclonal neutralizing antibody B-E8 (antibody, from another filing, V domains shown)
VH: QVTLKESGPGILKPSQTLSLTCSFSGFSLSTSGMGVGWIRQPSGKGLEWLAHIWWDDDKYYNPSLKSQLTISKDTSRNQVFLKITSVDTADTATYYCARSYDDYLYYALDYWGQGTSVTVSS
VL: DIVMTQSPATLSVTPGDRVSLSCRASQSISDYLHWYQQKSHESPRLLIKSVSQSISGIPSRFSGSGSGSDFTLSINSVEPEDVGVYYCQNGHSFPLTFGAGTKLELK

- tyrosine phosphorylation of gp130 in PC12D cells in response to IL-6 (gp130 on PC12D cells): 2 nM
- tyrosine phosphorylation of gp130 in PC12D cells in response to IL-6 and sIL-6Rα (gp130 on PC12D cells): 8 nM
B2: Rat CNTF (ligand, UniProt P20294 1-200, looked up)
chain: MAFAEQTPLTLHRRDLCSRSIWLARKIRSDLTALMESYVKHQGLNKNINLDSVDGVPVASTDRWSEMTEAERLQENLQAYRTFQGMLTKLLEDQRVHFTPTEGDFHQAIHTLMLQVSAFAYQLEELMVLLEQKIPENEADGMPATVGDGGLFEKKLWGLKVLQELSQWTVRSIHDLRVISSHQMGISALESHYGAKDKQM
